The source of these data is patent publication US20090252717.

The target in data set [1] is KHC-584 (first 584 amino acids of rat KHC, expressed in E. coli) (UniProt Q2PQA9).
In data set [2] the target is immunoprecipitated endogenous mouse brain kinesin-1 (UniProt Q61768).
Sequence of immunoprecipitated endogenous mouse brain kinesin-1 (Q61768 whole entry, looked up): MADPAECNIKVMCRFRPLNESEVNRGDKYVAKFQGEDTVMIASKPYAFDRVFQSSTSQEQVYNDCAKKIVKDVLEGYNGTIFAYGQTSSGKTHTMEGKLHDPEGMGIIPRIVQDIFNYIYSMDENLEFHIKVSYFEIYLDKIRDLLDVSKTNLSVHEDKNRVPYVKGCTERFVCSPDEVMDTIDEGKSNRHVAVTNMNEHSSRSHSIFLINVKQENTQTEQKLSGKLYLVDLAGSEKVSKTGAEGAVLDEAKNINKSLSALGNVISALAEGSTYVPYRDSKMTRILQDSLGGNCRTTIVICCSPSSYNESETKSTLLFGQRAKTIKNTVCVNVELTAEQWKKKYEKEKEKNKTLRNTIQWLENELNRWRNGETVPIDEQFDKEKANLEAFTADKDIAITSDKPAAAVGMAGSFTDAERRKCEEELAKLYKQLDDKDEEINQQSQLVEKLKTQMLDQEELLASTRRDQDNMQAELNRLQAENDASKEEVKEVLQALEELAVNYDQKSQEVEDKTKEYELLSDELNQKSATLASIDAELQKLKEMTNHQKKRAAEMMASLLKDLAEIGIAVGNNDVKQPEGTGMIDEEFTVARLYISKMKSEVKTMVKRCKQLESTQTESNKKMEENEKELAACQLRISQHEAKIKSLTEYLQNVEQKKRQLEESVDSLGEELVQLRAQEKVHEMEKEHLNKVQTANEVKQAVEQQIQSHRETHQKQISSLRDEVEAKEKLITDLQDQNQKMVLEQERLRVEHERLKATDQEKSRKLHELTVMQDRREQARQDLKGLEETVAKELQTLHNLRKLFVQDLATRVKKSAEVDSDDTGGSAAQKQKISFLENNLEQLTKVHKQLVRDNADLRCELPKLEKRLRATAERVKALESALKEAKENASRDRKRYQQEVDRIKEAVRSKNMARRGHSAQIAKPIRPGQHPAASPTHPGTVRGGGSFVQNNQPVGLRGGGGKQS

Sequence of recombinant 6-His-tagged JNK3 kinase (JNK3/SAPK1b, Upstate Biotechnology) (P53779 whole entry): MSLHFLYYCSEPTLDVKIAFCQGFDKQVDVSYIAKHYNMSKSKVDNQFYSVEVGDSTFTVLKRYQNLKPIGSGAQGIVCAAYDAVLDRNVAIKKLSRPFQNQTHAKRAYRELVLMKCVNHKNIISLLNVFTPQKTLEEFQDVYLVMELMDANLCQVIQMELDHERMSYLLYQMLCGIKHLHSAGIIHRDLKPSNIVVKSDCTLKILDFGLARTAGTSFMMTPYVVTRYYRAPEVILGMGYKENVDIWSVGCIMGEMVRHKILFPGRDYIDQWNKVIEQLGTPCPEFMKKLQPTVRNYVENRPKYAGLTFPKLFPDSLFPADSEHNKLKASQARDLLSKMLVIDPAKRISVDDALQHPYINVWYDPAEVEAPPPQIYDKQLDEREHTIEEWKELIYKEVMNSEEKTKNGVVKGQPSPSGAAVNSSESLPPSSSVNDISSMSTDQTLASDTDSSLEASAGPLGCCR
Sequence of KHC-584 (first 584 amino acids of rat KHC, expressed in E. coli) (Q2PQA9 1-584): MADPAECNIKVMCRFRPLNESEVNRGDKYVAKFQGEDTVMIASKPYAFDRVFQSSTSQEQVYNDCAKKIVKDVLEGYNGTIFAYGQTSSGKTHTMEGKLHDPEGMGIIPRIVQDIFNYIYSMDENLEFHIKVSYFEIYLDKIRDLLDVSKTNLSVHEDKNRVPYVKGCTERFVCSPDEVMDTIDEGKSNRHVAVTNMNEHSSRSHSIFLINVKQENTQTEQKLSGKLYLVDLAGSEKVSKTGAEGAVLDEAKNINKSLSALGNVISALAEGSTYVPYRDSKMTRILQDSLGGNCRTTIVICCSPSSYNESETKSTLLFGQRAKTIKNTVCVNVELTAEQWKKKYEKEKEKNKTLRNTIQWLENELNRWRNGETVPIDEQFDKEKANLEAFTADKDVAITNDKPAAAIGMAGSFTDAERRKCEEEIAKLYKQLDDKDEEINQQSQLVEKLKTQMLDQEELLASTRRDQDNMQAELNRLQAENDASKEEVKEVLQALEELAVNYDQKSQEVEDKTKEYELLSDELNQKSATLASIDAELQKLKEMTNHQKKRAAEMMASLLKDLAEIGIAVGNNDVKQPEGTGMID

With “recombinant 6-His-tagged JNK3 kinase (JNK3/SAPK1b, Upstate Biotechnology)”, in data set [1], the “in vitro kinase assay (32P incorporation)” value was “both recombinant KHC and immunoprecipitated endogenous mouse brain kinesin-1 KHC could be phosphorylated by recombinant JNK”; the “in vitro phosphorylation, mass spectrometry of tryptic peptides” value was “A single tryptic peptide was identified with evidence of phosphorylation”. Also, in data set [2], the “in vitro kinase assay (32P incorporation)” value is “both recombinant KHC and immunoprecipitated endogenous mouse brain kinesin-1 KHC could be phosphorylated by recombinant JNK”; the “in vitro phosphorylation, autoradiogram” value is recorded as “Autoradiograms showed 32P incorporation in KHCs, but not KLCs”.
